Measured values reported in IntAct's records for PubMed 22317921.

B1: Zinc transporter SLC39A7 (Homo sapiens), Q92504 (parent)
chain: MARGLGAPHWVAVGLLTWATLGLLVAGLGGHDDLHDDLQEDFHGHSHRHSHEDFHHGHSHAHGHGHTHESIWHGHTHDHDHGHSHEDLHHGHSHGYSHESLYHRGHGHDHEHSHGGYGESGAPGIKQDLDAVTLWAYALGATVLISAAPFFVLFLIPVESNSPRHRSLLQILLSFASGGLLGDAFLHLIPHALEPHSHHTLEQPGHGHSHSGQGPILSVGLWVLSGIVAFLVVEKFVRHVKGGHGHSHGHGHAHSHTRGSHGHGRQERSTKEKQSSEEEEKETRGVQKRRGGSTVPKDGPVRPQNAEEEKRGLDLRVSGYLNLAADLAHNFTDGLAIGASFRGGRGLGILTTMTVLLHEVPHEVGDFAILVQSGCSKKQAMRLQLLTAVGALAGTACALLTEGGAVGSEIAGGAGPGWVLPFTAGGFIYVATVSVLPELLREASPLQSLLEVLGLLGGVIMMVLIAHLE

Variants of: B1
Details: with csk21_human CSNK2A1, P68400
csk21_human CSNK2A1, P68400, sequence (P68400 whole entry, looked up): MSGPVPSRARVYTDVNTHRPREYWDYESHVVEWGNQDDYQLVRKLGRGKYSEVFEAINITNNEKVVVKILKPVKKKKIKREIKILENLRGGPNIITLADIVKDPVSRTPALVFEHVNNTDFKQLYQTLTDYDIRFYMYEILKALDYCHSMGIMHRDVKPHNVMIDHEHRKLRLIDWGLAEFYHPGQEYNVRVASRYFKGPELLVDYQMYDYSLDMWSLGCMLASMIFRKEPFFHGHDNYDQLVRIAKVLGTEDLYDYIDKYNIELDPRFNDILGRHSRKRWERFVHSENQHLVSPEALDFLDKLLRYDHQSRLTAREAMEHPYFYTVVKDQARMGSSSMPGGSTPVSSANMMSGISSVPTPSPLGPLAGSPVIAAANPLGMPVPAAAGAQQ

Variant | effect of a mutation on the interaction
S275A;S276A | decreasing interaction
